Assays:
[1] = test system: GINS complex; experiment: Size exclusion chromatography co-elution with GINS; type: binding; settings: Superdex200; 20 µM of each component; 10 mM HEPES pH 7.5, 150 mM NaCl, 0.5 mM TCEP
Description: Recombinant TopBP1 and GINS proteins were mixed in an equimolar ratio to give a final concentration of 20 µM of each component and incubated on ice for at least 30 min prior to application to a Superdex200increase 10 300 column (GE Healthcare, Little Chalfont, UK) equilibrated in 10 mM HEPES pH 7.5, 150 mM NaCl, 0.5 mM TCEP.

[2] = test system: chromatin-bound replication proteins; experiment: Chromatin mass spectrometry (CHROMASS) from TopBP1-depleted Xenopus egg extracts; type: biochemical, Xenopus laevis; settings: mass spectrometry and immunoblotting; 75 min after starting replication, aphidicolin added, TopBP1 6 ng/µl; n = 4 for MS
Description: Fig. 6 GINS binding to TopBP1 is required for the origin firing step of replication. a–c Heat map showing the intensity of chromatin-bound proteins recovered from TopBP1-depleted interphase Xenopus egg extracts supplemented wild type or mutant TopBP1 determined by quantitative mass spectrometry. Chromatin was isolated 75 min after sperm addition. All extracts contained […] aphidicolin and, where indicated, […] geminin. […] For the intensities of all proteins see Supplementary Data 2. b, c Volcano plots highlighting a selection of differentially detected proteins in samples described in (a). Log2 transformed LFQ intensities from four replicates each were analysed by a two-sided Student’s t-test. […] Coomassie staining of the gel part containing histones served as a loading control.
For chromatin isolation, XTopBP1-depleted interphase egg extract was supplemented with 50 µg/ml aphidicolin and aliquoted into 15 µl samples before addition of buffer or recombinant TopBP1 to a final concentration 6 ng/µl. 2.25 µM Xgeminin or buffer were added before incubation for 10 min on ice. To start the replication, 9 ng sperm DNA/µl extract was added and incubated for 75 min at 23 °C. […] For MS analysis, four biological replicates of chromatin pellets were analysed by CHROMASS[45]. […]

B1: TopBP1-BRCT0-5-WT: recombinant TopBP1 amino acids 1–766, strep-tagged (protein)
chain: MSRNDKEPFFVKFLKSSDNSKCFFKALESIKEFQSEEYLQIITEEEALKIKENDRSLYICDPFSGVVFDHLKKLGCRIVGPQVVIFCMHHQRCVPRAEHPVYNMVMSDVTISCTSLEKEKREEVHKYVQMMGGRVYRDLNVSVTHLIAGEVGSKKYLVAANLKKPILLPSWIKTLWEKSQEKKITRYTDINMEDFKCPIFLGCIICVTGLCGLDRKEVQQLTVKHGGQYMGQLKMNECTHLIVQEPKGQKYECAKRWNVHCVTTQWFFDSIEKGFCQDESIYKTEPRPEAKTMPNSSTPTSQINTIDSRTLSDVSNISNINASCVSESICNSLNSKLEPTLENLENLDVSAFQAPEDLLDGCRIYLCGFSGRKLDKLRRLINSGGGVRFNQLNEDVTHVIVGDYDDELKQFWNKSAHRPHVVGAKWLLECFSKGYMLSEEPYIHANYQPVEIPVSHKPESKAALLKKKNSSFSKKDFAPSEKHEQADEDLLSQYENGSSTVVEAKTSEARPFNDSTHAEPLNDSTHISLQEENQSSVSHCVPDVSTITEEGLFSQKSFLVLGFSNENESNIANIIKENAGKIMSLLSRTVADYAVVPLLGCEVEATVGEVVTNTWLVTCIDYQTLFDPKSNPLFTPVPVMTGMTPLEDCVISFSQCAGAEKESLTFLANLLGASVQEYFVRKSNAKKGMFASTHLILKERGGSKYEAAKKWNLPAVTIAWLLETARTGKRADESHFLIENSTKEERSLETEITNGINLNSDTAEHP
modifications: left off: Strep, C-terminal, kept
notes: recombinant TopBP1 amino acids 1–766, strep-tagged
co-elution with GINS from size exclusion column [1]: co-eluted with the GINS complex
chromatin binding of replisome markers / Mcm2-7 [2]: Several replisome markers, including GINS and Cdc45, were detected on chromatin
